Experimental data: patent publication US20240092931A1 (JANUX THERAPEUTICS, published 2024)

B1: TROP2 polypeptide complex Ab-3 (bispecific antibody)
light: DIQLTQSPSSLSASVGDRVSITCKASQDVSIAVAWYQQKPGKAPKLLIYSASYRYTGVPDRFSGSGSGTDFTLTISSLQPEDFAVYYCQQHYITPLTFGAGTKVEIKRTVAAPSVFIFPPSDEQLKSGTASVVCLLNNFYPREAKVQWKVDNALQSGNSQESVTEQDSKDSTYSLSSTLTLSKADYEKHKVYACEVTHQGLSSPVTKSFNRGEC
heavy: QTVVTQEPSLTVSPGGTVTLTCRSSTGAVTTSNYANWVQQKPGQAPRGLIGGTNKRAPGTPARFSGSLLGGKAALTLSGVQPEDEAEYYCALWYSNLWVFGGGTKLTVLGGGGSGGGGSGGGGSEVQLVESGGGLVQPGGSLKLSCAASGFTFNTYAMNWVRQAPGKGLEWVARIRSKYNNYATYYADSVKDRFTISRDDSKNTAYLQMNNLKTEDTAVYYCVRHGNFGNSYVSWFAYWGQGTLVTVSSGGGGSQVQLQQSGSELKKPGASVKVSCKASGYTFTNYGMNWVKQAPGQGLKWMGWINTYTGEPTYTDDFKGRFAFSLDTSVSTAYLQISSLKADDTAVYFCARGGFGSSYWYFDVWGQGSLVTVSSASTKGPSVFPLAPSSKSTSGGTAALGCLVKDYFPEPVTVSWNSGALTSGVHTFPAVLQSSGLYSLSSVVTVPSSSLGTQTYICNVNHKPSNTKVDKKVEPKSC
notes: Anti-CD3 scFv fused to the N-terminus of the anti-TROP2 Fab heavy chain
B2: TROP2 TCE polypeptide complex Ab-1 (bispecific antibody)
light: B1 light
heavy: not shown
notes: as for B1
B3: Ab-2 (bispecific antibody)
light: not shown
heavy: QVQLQQSGSELKKPGASVKVSCKASGYTFTNYGMNWVKQAPGQGLKWMGWINTYTGEPTYTDDFKGRFAFSLDTSVSTAYLQISSLKADDTAVYFCARGGFGSSYWYFDVWGQGSLVTVSSASTKGPSVFPLAPSSKSTSGGTAALGCLVKDYFPEPVTVSWNSGALTSGVHTFPAVLQSSGLYSLSSVVTVPSSSLGTQTYICNVNHKPSNTKVDKKVEPKSC
notes: Anti-CD3 scFv fused to the N-terminus of the anti-TROP2 Fab light chain

What was measured:
Human TROP2-Biotin [1] = target: T1, Human TROP2-Biotin (human, UniProt P09758 27-274, biotinylated (site not stated)); assay: BLI (Octet): 10 nM TROP2-biotin loaded on sensor, Ab-3 at 6.25-50 nM, pH 7.4
T1 construct: The text calls the captured antigens 'biotinylated peptides'
T1 sequence (looked up): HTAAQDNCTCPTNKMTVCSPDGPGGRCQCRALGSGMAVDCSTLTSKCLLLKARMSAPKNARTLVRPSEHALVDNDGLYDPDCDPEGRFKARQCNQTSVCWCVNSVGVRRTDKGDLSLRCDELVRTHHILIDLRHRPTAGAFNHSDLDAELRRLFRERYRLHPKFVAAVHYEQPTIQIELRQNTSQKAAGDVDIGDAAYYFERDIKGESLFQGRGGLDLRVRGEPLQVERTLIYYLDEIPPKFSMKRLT

Human TROP2-Biotin [2] = target: T1, Human TROP2-Biotin; assay: ELISA; 1 nM Trop2-biotin immobilized (captured on neutravidin-coated plate), Ab-3 titrated, bound complex detected with a secondary antibody, OD 450 nm
Text: A secondary antibody was used to detect bound polypeptide complex.

Human TROP2-Biotin [3] = target: T1, Human TROP2-Biotin; assay: TROP2 ELISA; TROP2-biotin captured on neutravidin-coated plate, antibody titrated, detected with a secondary antibody, OD 450 nm
Text: A secondary antibody was used to detect bound polypeptide complex. A secondary antibody was used to detect bound polypeptide complex.

Human TROP2-Biotin [4] = target: T1, Human TROP2-Biotin; assay: BLI (Octet): 10 nM Human TROP2-Biotin loaded on sensor, Ab at 6.25-50 nM, pH 7.4

Row | Binder | Kd (Human TROP2-Biotin [1]) [nM] | koff (Human TROP2-Biotin [1]) [s⁻¹] | kon (Human TROP2-Biotin [1]) [M⁻¹ s⁻¹] | EC50 (Human TROP2-Biotin [2]) [nM] | EC50 (Human TROP2-Biotin [3]) [nM] | Kd (Human TROP2-Biotin [4]) [nM]
1 | B1 | 1.12 | 0.000223 | 199000 | 0.17 |  | 
2 | B2 |  |  |  |  | 0.08 | 0.466
3 | B3 |  |  |  |  | 0.09 | 0.687
